Nine molecules from patent EP2025683A1 (INSERM (Institut National de la Santé et de la Recherche …, dated 2009) can be followed below.

For experiment [1], the target named is T1, human prolactin receptor (human, UniProt P16471 25-622).
T1 sequence (looked up): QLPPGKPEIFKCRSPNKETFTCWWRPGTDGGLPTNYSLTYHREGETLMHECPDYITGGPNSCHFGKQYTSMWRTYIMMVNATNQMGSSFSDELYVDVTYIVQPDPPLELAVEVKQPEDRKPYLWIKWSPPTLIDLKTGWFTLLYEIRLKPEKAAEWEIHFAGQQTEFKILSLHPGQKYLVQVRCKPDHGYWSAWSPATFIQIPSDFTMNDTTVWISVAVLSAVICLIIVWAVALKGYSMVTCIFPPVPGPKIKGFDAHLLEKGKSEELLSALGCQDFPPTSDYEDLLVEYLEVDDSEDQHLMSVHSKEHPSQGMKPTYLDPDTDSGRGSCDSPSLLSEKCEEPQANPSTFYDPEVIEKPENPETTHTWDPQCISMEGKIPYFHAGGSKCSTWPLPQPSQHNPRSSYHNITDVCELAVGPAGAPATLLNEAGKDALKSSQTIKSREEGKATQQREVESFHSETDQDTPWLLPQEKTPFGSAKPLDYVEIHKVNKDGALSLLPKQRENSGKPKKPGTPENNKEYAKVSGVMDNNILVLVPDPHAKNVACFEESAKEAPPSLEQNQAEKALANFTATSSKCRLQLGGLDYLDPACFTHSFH
Kind of experiment: cell-based or functional assay.

In experiment [2] the target is T1, human prolactin receptor. The experiment in a line: displacement of [125I]-hPRL, homogenates of HEK 293 cells stably expressing hPRLR (HL-5 clone). On the technique in general: In a radioligand displacement assay an active substance lowers the binding of a labelled ligand.

As to “Del1-9-G129R-hPRL (from UniProt P01236 29-227) (ligand)”, in the experiment with human prolactin receptor [1], the Agonism Ba/F-LP cells (% of hPRL max activity) (% of hPRL max activity) is 8.3 and the Antagonism HL-5 cells IC50 worked out at 120 nM.

B1: G129D-hPRL (ligand, human, UniProt P01236 29-227, looked up)
chain: LPICPGGAARCQVTLRDLFDRAVVLSHYIHNLSSEMFSEFDKRYTHGRGFITKAINSCHTSSLATPEDKEQAQQMNQKDFLSLIVSILRSWNEPLYHLVTEVRGMQEAPEAILSKAVEIEEQTKRLLEDMELIVSQVHPETKENEIYPVWSGLPSLQMADEESRLSAYYNLLHCLRRDSHKIDNYLKLLKCRIIHNNNC
As for B1, in the experiment with human prolactin receptor [1], the “Agonism Ba/F-LP cells (% of hPRL max activity)” value is 23.6 % of hPRL max activity and the “Antagonism HL-5 cells IC50” value was 340 nM.

B2: G129R-hPRL (ligand, human, UniProt P01236 29-227, looked up)
chain: LPICPGGAARCQVTLRDLFDRAVVLSHYIHNLSSEMFSEFDKRYTHGRGFITKAINSCHTSSLATPEDKEQAQQMNQKDFLSLIVSILRSWNEPLYHLVTEVRGMQEAPEAILSKAVEIEEQTKRLLERMELIVSQVHPETKENEIYPVWSGLPSLQMADEESRLSAYYNLLHCLRRDSHKIDNYLKLLKCRIIHNNNC
notes: mature
In the case of B2, in the experiment with human prolactin receptor [1], the “Agonism Ba/F-LP cells (% of hPRL max activity)” value is 45.5 % of hPRL max activity and the “Antagonism HL-5 cells IC50” value worked out at 200 nM. Also, in the experiment with human prolactin receptor [2], the concentration for half-maximal inhibition (IC50) (as a rule, the concentration needed to halve the response being measured) was 19 nM and the “affinity relative to WT hPRL” value is ~1 order of magnitude lower than WT hPRL.

B3: G129L-hPRL (ligand, human, UniProt P01236 29-227, looked up)
chain: LPICPGGAARCQVTLRDLFDRAVVLSHYIHNLSSEMFSEFDKRYTHGRGFITKAINSCHTSSLATPEDKEQAQQMNQKDFLSLIVSILRSWNEPLYHLVTEVRGMQEAPEAILSKAVEIEEQTKRLLELMELIVSQVHPETKENEIYPVWSGLPSLQMADEESRLSAYYNLLHCLRRDSHKIDNYLKLLKCRIIHNNNC
Take B3: in the experiment with human prolactin receptor [1], the “Agonism Ba/F-LP cells (% of hPRL max activity)” value was 16.8 % of hPRL max activity and the “Antagonism HL-5 cells IC50” value was found to be 160 nM.

B4: G129F-hPRL (ligand, human, UniProt P01236 29-227, looked up)
chain: LPICPGGAARCQVTLRDLFDRAVVLSHYIHNLSSEMFSEFDKRYTHGRGFITKAINSCHTSSLATPEDKEQAQQMNQKDFLSLIVSILRSWNEPLYHLVTEVRGMQEAPEAILSKAVEIEEQTKRLLEFMELIVSQVHPETKENEIYPVWSGLPSLQMADEESRLSAYYNLLHCLRRDSHKIDNYLKLLKCRIIHNNNC
As for B4, in the experiment with human prolactin receptor [1], the “Agonism Ba/F-LP cells (% of hPRL max activity)” value is 19.1 % of hPRL max activity and the “Antagonism HL-5 cells IC50” value was 110 nM.

B5: G129N-hPRL (ligand, human, UniProt P01236 29-227, looked up)
chain: LPICPGGAARCQVTLRDLFDRAVVLSHYIHNLSSEMFSEFDKRYTHGRGFITKAINSCHTSSLATPEDKEQAQQMNQKDFLSLIVSILRSWNEPLYHLVTEVRGMQEAPEAILSKAVEIEEQTKRLLENMELIVSQVHPETKENEIYPVWSGLPSLQMADEESRLSAYYNLLHCLRRDSHKIDNYLKLLKCRIIHNNNC
For the molecule B5, in the experiment with human prolactin receptor [1], the “Agonism Ba/F-LP cells (% of hPRL max activity)” value was 26.4 % of hPRL max activity and the “Antagonism HL-5 cells IC50” value was 130 nM.

B6: G129P-hPRL (ligand, human, UniProt P01236 29-227, looked up)
chain: LPICPGGAARCQVTLRDLFDRAVVLSHYIHNLSSEMFSEFDKRYTHGRGFITKAINSCHTSSLATPEDKEQAQQMNQKDFLSLIVSILRSWNEPLYHLVTEVRGMQEAPEAILSKAVEIEEQTKRLLEPMELIVSQVHPETKENEIYPVWSGLPSLQMADEESRLSAYYNLLHCLRRDSHKIDNYLKLLKCRIIHNNNC
As for B6, in the experiment with human prolactin receptor [1], the “Agonism Ba/F-LP cells (% of hPRL max activity)” value is 90.4 % of hPRL max activity and the “Antagonism HL-5 cells IC50” value was 340 nM.

B7: G129Y-hPRL (ligand, human, UniProt P01236 29-227, looked up)
chain: LPICPGGAARCQVTLRDLFDRAVVLSHYIHNLSSEMFSEFDKRYTHGRGFITKAINSCHTSSLATPEDKEQAQQMNQKDFLSLIVSILRSWNEPLYHLVTEVRGMQEAPEAILSKAVEIEEQTKRLLEYMELIVSQVHPETKENEIYPVWSGLPSLQMADEESRLSAYYNLLHCLRRDSHKIDNYLKLLKCRIIHNNNC
Regarding B7, in the experiment with human prolactin receptor [1], the “Agonism Ba/F-LP cells (% of hPRL max activity)” value was 24.3 % of hPRL max activity and the “Antagonism HL-5 cells IC50” value came out at 190 nM.

B8: G129V-hPRL (ligand, human, UniProt P01236 29-227, looked up)
chain: LPICPGGAARCQVTLRDLFDRAVVLSHYIHNLSSEMFSEFDKRYTHGRGFITKAINSCHTSSLATPEDKEQAQQMNQKDFLSLIVSILRSWNEPLYHLVTEVRGMQEAPEAILSKAVEIEEQTKRLLEVMELIVSQVHPETKENEIYPVWSGLPSLQMADEESRLSAYYNLLHCLRRDSHKIDNYLKLLKCRIIHNNNC
Consider B8, for which, in the experiment with human prolactin receptor [1], the “Agonism Ba/F-LP cells (% of hPRL max activity)” value is 14.2 % of hPRL max activity and the “Antagonism HL-5 cells IC50” value was 110 nM.
